± gives the standard deviation of the averaged measurements.
B1: library; a variant is named by its letters at N, in order (parent)
chain: GAGACCGCAACTGAAAAGTTGTGGNNNNNATAGTGAGTCGCTGCCTGCAAAGACACAACT

Variants of: B1
Assay: ligation selection enrichment (abundance after / before one-round selection) (fold); higher = more template-directed ligation activity
Conditions: with T7Psub CACGGAUGCUAAUACGACUCACUAUA; MgCl2 25 mM; 42 °C; 4 h; pH 8.5
Summary of the method: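 In each of two independent experiments, 6 μM RNA substrate was reacted for 4 h at 42 °C with 0.75 μM of a T7-transcribed RNA ligase library randomized at five core positions, in buffer containing 50 mM EPPS pH 8.5 and 25 mM MgCl2. Only reads scoring ≥30 in quality at all randomized positions were counted after MiSeq sequencing. Each enrichment value is the ratio of abundance after ligation to abundance before ligation.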

Variant	ligation selection enrichment
GAGACCGCAACTGAAAAGTTGTGGAGAGGATAGTGAGTCGCTGCCTGCAAAGACACAACT [AGAGG]	0.288 ± 0.045
GAGACCGCAACTGAAAAGTTGTGGAGAGCATAGTGAGTCGCTGCCTGCAAAGACACAACT [AGAGC]	0.196 ± 0.028
GAGACCGCAACTGAAAAGTTGTGGAGAGTATAGTGAGTCGCTGCCTGCAAAGACACAACT [AGAGT]	0.253 ± 0.024
GAGACCGCAACTGAAAAGTTGTGGAGAGAATAGTGAGTCGCTGCCTGCAAAGACACAACT [AGAGA]	0.338 ± 0.038
GAGACCGCAACTGAAAAGTTGTGGCGCCAATAGTGAGTCGCTGCCTGCAAAGACACAACT [CGCCA]	0.146 ± 0.048
GAGACCGCAACTGAAAAGTTGTGGCGCCCATAGTGAGTCGCTGCCTGCAAAGACACAACT [CGCCC]	0.161 ± 0.004
GAGACCGCAACTGAAAAGTTGTGGCGCCTATAGTGAGTCGCTGCCTGCAAAGACACAACT [CGCCT]	0.779 ± 0.21
GAGACCGCAACTGAAAAGTTGTGGCGCCGATAGTGAGTCGCTGCCTGCAAAGACACAACT [CGCCG]	0.43 ± 0.033
GAGACCGCAACTGAAAAGTTGTGGGGCATATAGTGAGTCGCTGCCTGCAAAGACACAACT [GGCAT]	5.15 ± 1.1
GAGACCGCAACTGAAAAGTTGTGGGGCAGATAGTGAGTCGCTGCCTGCAAAGACACAACT [GGCAG]	0.55 ± 0.028
GAGACCGCAACTGAAAAGTTGTGGGGCACATAGTGAGTCGCTGCCTGCAAAGACACAACT [GGCAC]	0.395 ± 0.016
GAGACCGCAACTGAAAAGTTGTGGGGCAAATAGTGAGTCGCTGCCTGCAAAGACACAACT [GGCAA]	0.423 ± 0.11
GAGACCGCAACTGAAAAGTTGTGGCGCGAATAGTGAGTCGCTGCCTGCAAAGACACAACT [CGCGA]	1.1 ± 0.18
GAGACCGCAACTGAAAAGTTGTGGCGCGCATAGTGAGTCGCTGCCTGCAAAGACACAACT [CGCGC]	0.223 ± 0.025
GAGACCGCAACTGAAAAGTTGTGGTGATTATAGTGAGTCGCTGCCTGCAAAGACACAACT [TGATT]	2.4 ± 0.61
GAGACCGCAACTGAAAAGTTGTGGTGATGATAGTGAGTCGCTGCCTGCAAAGACACAACT [TGATG]	0.708 ± 0.08
GAGACCGCAACTGAAAAGTTGTGGTGATAATAGTGAGTCGCTGCCTGCAAAGACACAACT [TGATA]	0.4829 ± 0.0015
GAGACCGCAACTGAAAAGTTGTGGTGATCATAGTGAGTCGCTGCCTGCAAAGACACAACT [TGATC]	0.143 ± 0.062
GAGACCGCAACTGAAAAGTTGTGGTGCGAATAGTGAGTCGCTGCCTGCAAAGACACAACT [TGCGA]	2.41 ± 0.15
GAGACCGCAACTGAAAAGTTGTGGCGCAAATAGTGAGTCGCTGCCTGCAAAGACACAACT [CGCAA]	0.29 ± 0.03
GAGACCGCAACTGAAAAGTTGTGGCGCATATAGTGAGTCGCTGCCTGCAAAGACACAACT [CGCAT]	3.7 ± 0.39
GAGACCGCAACTGAAAAGTTGTGGCGCAGATAGTGAGTCGCTGCCTGCAAAGACACAACT [CGCAG]	0.2266 ± 0.0013

Variant	ligation selection enrichment
GAGACCGCAACTGAAAAGTTGTGGCGCACATAGTGAGTCGCTGCCTGCAAAGACACAACT [CGCAC]	0.339 ± 0.028
GAGACCGCAACTGAAAAGTTGTGGAGACTATAGTGAGTCGCTGCCTGCAAAGACACAACT [AGACT]	0.736 ± 0.21
GAGACCGCAACTGAAAAGTTGTGGAGACGATAGTGAGTCGCTGCCTGCAAAGACACAACT [AGACG]	0.532 ± 0.039
GAGACCGCAACTGAAAAGTTGTGGAGACCATAGTGAGTCGCTGCCTGCAAAGACACAACT [AGACC]	0.172 ± 0.011
GAGACCGCAACTGAAAAGTTGTGGAGACAATAGTGAGTCGCTGCCTGCAAAGACACAACT [AGACA]	0.206 ± 0.011
GAGACCGCAACTGAAAAGTTGTGGTGCCTATAGTGAGTCGCTGCCTGCAAAGACACAACT [TGCCT]	0.408 ± 0.18
GAGACCGCAACTGAAAAGTTGTGGTGCCGATAGTGAGTCGCTGCCTGCAAAGACACAACT [TGCCG]	0.559 ± 0.02
GAGACCGCAACTGAAAAGTTGTGGTGCCCATAGTGAGTCGCTGCCTGCAAAGACACAACT [TGCCC]	0.1927 ± 0.0019
GAGACCGCAACTGAAAAGTTGTGGTGCCAATAGTGAGTCGCTGCCTGCAAAGACACAACT [TGCCA]	0.144 ± 0.028
GAGACCGCAACTGAAAAGTTGTGGTGAGAATAGTGAGTCGCTGCCTGCAAAGACACAACT [TGAGA]	0.376 ± 0.039
GAGACCGCAACTGAAAAGTTGTGGTGAGCATAGTGAGTCGCTGCCTGCAAAGACACAACT [TGAGC]	0.156 ± 0.035
GAGACCGCAACTGAAAAGTTGTGGTGAGGATAGTGAGTCGCTGCCTGCAAAGACACAACT [TGAGG]	0.319 ± 0.074
GAGACCGCAACTGAAAAGTTGTGGTGAGTATAGTGAGTCGCTGCCTGCAAAGACACAACT [TGAGT]	0.221 ± 0.024
GAGACCGCAACTGAAAAGTTGTGGGGCCTATAGTGAGTCGCTGCCTGCAAAGACACAACT [GGCCT]	0.408 ± 0.092
GAGACCGCAACTGAAAAGTTGTGGGGCCGATAGTGAGTCGCTGCCTGCAAAGACACAACT [GGCCG]	0.746 ± 0.042
GAGACCGCAACTGAAAAGTTGTGGGGCCAATAGTGAGTCGCTGCCTGCAAAGACACAACT [GGCCA]	0.241 ± 0.083
GAGACCGCAACTGAAAAGTTGTGGGGCCCATAGTGAGTCGCTGCCTGCAAAGACACAACT [GGCCC]	0.192 ± 0.0055
GAGACCGCAACTGAAAAGTTGTGGAGCATATAGTGAGTCGCTGCCTGCAAAGACACAACT [AGCAT]	3.55 ± 0.68
GAGACCGCAACTGAAAAGTTGTGGAGCAAATAGTGAGTCGCTGCCTGCAAAGACACAACT [AGCAA]	0.342 ± 0.056
GAGACCGCAACTGAAAAGTTGTGGAGCACATAGTGAGTCGCTGCCTGCAAAGACACAACT [AGCAC]	0.319 ± 0.037
GAGACCGCAACTGAAAAGTTGTGGAGCAGATAGTGAGTCGCTGCCTGCAAAGACACAACT [AGCAG]	0.325 ± 0.015
GAGACCGCAACTGAAAAGTTGTGGTGACGATAGTGAGTCGCTGCCTGCAAAGACACAACT [TGACG]	0.49 ± 0.13

From the supplement of paper PMC10219994
